Measurements published in US20200148771A1 (HARPOON THERAPEUTICS, published 2020).

T1: CTLA4 (Acro Biosystems), coated on plate (UniProt P16410 37-162, limits assumed)
T1 construct: Bought antigen; the construct is not described; also called target antigen
T1 sequence (looked up): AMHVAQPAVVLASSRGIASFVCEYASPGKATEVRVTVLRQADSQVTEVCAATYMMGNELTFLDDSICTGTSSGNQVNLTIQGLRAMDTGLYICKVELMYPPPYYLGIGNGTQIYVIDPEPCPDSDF

B1: Seli-ProMonoMab, matriptase-treated (active form) (antibody, V domains shown)
VH: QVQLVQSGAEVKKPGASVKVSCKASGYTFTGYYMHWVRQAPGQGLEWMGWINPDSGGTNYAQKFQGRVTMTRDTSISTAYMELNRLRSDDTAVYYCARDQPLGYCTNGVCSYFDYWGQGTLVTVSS
VL: DIQMTQSPSSVSASVGDRVTITCRASQGIYSWLAWYQQKPGKAPNLLIYTASTLQSGVPSRFSGSGSGTDFTLTISSLQPEDFATYYCQQANIFPLTFGGGTKVEIKG
notes: Same chains as the prodrug, treated overnight with 40 nM recombinant human matriptase
B2: Dace-ProMonoMab, matriptase-treated (active form) (antibody, V domains shown)
VH: EVQLVESGGGLVQPGGSLRLSCAASGYSFTGYYIHWVRQAPGKGLEWVARVIPNAGGTSYNQKFKGRFTLSVDNSKNTAYLQMNSLRAEDTAVYYCAREGIYWWGQGTLVTVSS
VL: DIQMTQSPSSLSASVGDRVTITCRSSQSLVHSNGNTFLHWYQQKPGKAPKLLIYTVSNRFSGVPSRFSGSGSGTDFTLTISSLQPEDFATYFCSQTTHVPWTFGQGTKVEIKG
notes: Same chains as the prodrug, treated overnight with 40 nM recombinant human matriptase; also called protease-treated
B3: Treme-ProMonoMab, matriptase-treated (active form) (antibody, V domains shown)
VH: QVQLVESGGGVVQPGRSLRLSCAASGFTFSSYGMHWVRQAPGKGLEWVAVIWYDGSNKYYADSVKGRFTISRDNSKNTLYLQMNSLRAEDTAVYYCARDPRGATLYYYYYGMDVWGQGTTVTVSS
VL: DIQMTQSPSSLSASVGDRVTITCRASQSINSYLDWYQQKPGKAPKLLIYAASSLQSGVPSRFSGSGSGTDFTLTISSLQPEDFATYYCQQYYSTPFTFGPGTKVEIKG
notes: as for B2

Key:
[1] = target: T2, CD40 (Acro Biosystems), coated on plate (UniProt P25942 21-193); assay: ELISA, CD40 coated at 1 µg/ml, detection with anti-human IgG-Fc-peroxidase
T2 construct: Bought antigen; the construct is not described; also called target antigen
T2 sequence (P25942 21-193 limits assumed): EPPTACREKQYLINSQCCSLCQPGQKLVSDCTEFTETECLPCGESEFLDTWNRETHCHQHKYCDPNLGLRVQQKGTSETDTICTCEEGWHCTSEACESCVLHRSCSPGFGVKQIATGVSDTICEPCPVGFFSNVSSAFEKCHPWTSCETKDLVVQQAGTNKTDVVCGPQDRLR
Procedure: (§1) The affinities of the exemplary monovalent antibodies, in the prodrug and activated forms, were measured by an ELISA assay. Briefly, target antigens, CD40 or CTLA4 (both from Acro Biosystems), were coated at 1 μg/ml in a Nunc MaxiSorp plate (ThermoFisher) for 1 hour and blocked with SuperBlock (ThermoFisher). The exemplary monovalent antibodies, whether intact or matriptase-activated, were added at concentrations ranging from 0.001 to 1000 nM, as indicated in the x-axis of each plot shown in FIG. 4, and incubated for 1 hour at room temperature. Plates were washed 3 times using PBS supplemented with 0.05% Tween-20 (PBS-T). Goat anti-human IgG-Fc-peroxidase conjugate antibody (Sigma) was used at 1:10,000 dilution in PBS-T and incubated for an additional hour. Plates were washed 3 times using PBS-T, followed by development using TMB substrate (ThermoFisher), and neutralizing with 0.1 M sulfuric acid. The resulting colorimetric assay was measured at 450 nm using SpectraMax spectrophotometer (Molecular Devices).
(§2) Differential binding of the inducible monovalent antibodies in their prodrug and active forms was determined by comparing the apparent KD of the untreated (prodrug) or the protease-treated (active) forms of the inducible monovalent antibodies to their target antigens in an ELISA assay (results shown in FIG. 4).

[2] = target: T1, CTLA4 (Acro Biosystems), coated on plate; assay: ELISA, CTLA4 coated at 1 µg/ml, detection with anti-human IgG-Fc-peroxidase
Procedure: as §1, §2

Binder | fold difference in apparent affinity (apparent KD), matriptase-treated against untreated prodrug [1] [fold] | fold difference in apparent affinity (apparent KD), matriptase-treated against untreated prodrug [2] [fold]
B1 | 2 | –
B2 | 5.1 | –
B3 | – | 5.3
